Results from US20140274782A1, “AFFINITY REAGENTS AND METHODS FOR DETECTION, PURIFICATION, AND PROTEOMIC ANALYSIS OF METHYLATED PROTEINS” (The Board of Trustees of the Leland Stanford Junior …, priority 2013, published 2014).

B1: GSR (protein, UniProt P00390 44-522, looked up)
Glutathione reductase, …: MACRQEPQPQGPPPAAGAVASYDYLVIGGGSGGLASARRAAELGARAAVVESHKLGGTCVNVGCVPKKVMWNTAVHSEFMHDHADYGFPSCEGKFNWRVIKEKRDAYVSRLNAIYQNNLTKSHIEIIRGHAAFTSDPKPTIEVSGKKYTAPHILIATGGMPSTPHESQIPGASLGITSDGFFQLEELPGRSVIVGAGYIAVEMAGILSALGSKTSLMIRHDKVLRSFDSMISTNCTEELENAGVEVLKFSQVKEVKKTLSGLEVSMVTAVPGRLPVMTMIPDVDCLLWAIGRVPNTKDLSLNKLGIQTDDKGHIIVDEFQNTNVKGIYAVGDVCGKALLTPVAIAAGRKLAHRLFEYKEDSKLDYNNIPTVVFSHPPIGTVGLTEDEAIHKYGIENVKTYSTSFTPMYHAVTKRKTKCVMKMVCANKEEKVVGIHMQGLGCDEMLQGFAVAVKMGATKADFDNTVAIHPTSSEELVTLR
B2: HNRNPM (protein, UniProt P52272 2-730, looked up)
Heterogeneous nuclear …: AAGVEAAAEVAATEIKMEEESGAPGVPSGNGAPGPKGEGERPAQNEKRKEKNIKRGGNRFEPYANPTKRYRAFITNIPFDVKWQSLKDLVKEKVGEVTYVELLMDAEGKSRGCAVVEFKMEESMKKAAEVLNKHSLSGRPLKVKEDPDGEHARRAMQKVMATTGGMGMGPGGPGMITIPPSILNNPNIPNEIIHALQAGRLGSTVFVANLDYKVGWKKLKEVFSMAGVVVRADILEDKDGKSRGIGTVTFEQSIEAVQAISMFNGQLLFDRPMHVKMDERALPKGDFFPPERPQQLPHGLGGIGMGLGPGGQPIDANHLNKGIGMGNIGPAGMGMEGIGFGINKMGGMEGPFGGGMENMGRFGSGMNMGRINEILSNALKRGEIIAKQGGGGGGGSVPGIERMGPGIDRLGGAGMERMGAGLGHGMDRVGSEIERMGLVMDRMGSVERMGSGIERMGPLGLDHMASSIERMGQTMERIGSGVERMGAGMGFGLERMAAPIDRVGQTIERMGSGVERMGPAIERMGLSMERMVPAGMGAGLERMGPVMDRMATGLERMGANNLERMGLERMGANSLERMGLERMGANSLERMGPAMGPALGAGIERMGLAMGGGGGASFDRAIEMERGNFGGSFAGSFGGAGGHAPGVARKACQIFVRNLPFDFTWKMLKDKFNECGHVLYADIKMENGKSKGCGVVKFESPEVAERACRMMNGMKLSGREIDVRIDRNA
B3: PRDX1 (protein, UniProt Q06830 2-199, looked up)
Peroxiredoxin-1: SSGNAKIGHPAPNFKATAVMPDGQFKDISLSDYKGKYVVFFFYPLDFTFVCPTEIIAFSDRAEEFKKLNCQVIGASVDSHFCHLAWVNTPKKQGGLGPMNIPLVSDPKRTIAQDYGVLKADEGISFRGLFIIDDKGILRQITVNDLPVGRSVDETLRLVQAFQFTDKHGEVCPAGWKPGSDTIKPDVQKSKEYFSKQK
B4: DEK (protein, UniProt P35659 2-375, looked up)
Protein DEK: SASAPAAEGEGTPTQPASEKEPEMPGPREESEEEEDEDDEEEEEEEKEKSLIVEGKREKKKVERLTMQVSSLQREPFTIAQGKGQKLCEIERIHFFLSKKKTDELRNLHKLLYNRPGTVSSLKKNVGQFSGFPFEKGSVQYKKKEEMLKKFRNAMLKSICEVLDLERSGVNSELVKRILNFLMHPKPSGKPLPKSKKTCSKGSKKERNSSGMARKAKRTKCPEILSDESSSDEDEKKNKEESSDDEDKESEEEPPKKTAKREKPKQKATSKSKKSVKSANVKKADSSTTKKNQNSSKKESESEDSSDDEPLIKKLKKPPTDEELKETIKKLLASANLEEVTMKQICKKVYENYPTYDLTERKDFIKTTVKELIS
B5: HPRT1 (protein, UniProt P00492 2-218, looked up)
Hypoxanthine-guanine …: ATRSPGVVISDDEPGYDLDLFCIPNHYAEDLERVFIPHGLIMDRTERLARDVMKEMGGHHIVALCVLKGGYKFFADLLDYIKALNRNSDRSIPMTVDFIRLKSYCNDQSTGDIKVIGGDDLSTLTGKNVLIVEDIIDTGKTMQTLLSLVRQYNPKMVKVASLLVKRTPRSVGYKPDFVGFEIPDKFVVGYALDYNEYFRDLNHVCVISETGKAKYKA

Experiments:
3×MBT domain of L3MBTL1 = experiment: Triple SILAC pull-down, 3xMBT/3xMBTD355N ratio (cytoplasmic, nuclear and chromatin fractions of 293T cells); assay type: binding, human; conditions: for 3xMBT/D355N UNC Heavy: experiment with UNC0638 in heavy SILAC media; for 3xMBT/D355N UNC Light: experiment with UNC0638 in light SILAC media;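 on all read-outs here: proteins quantified with MaxQuant, requiring at least two unique peptides and quantification in both label directions, normalized to the mean of proteins from a digested loading control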
Description: For stable isotope labeling by amino acids in cell culture (SILAC) experiments HEK 293T cells were grown for at least six doublings in DMEM for SILAC supplemented with 10% dialyzed fetal bovine serum (FBS), 230 mg/L L-proline and either 100 mg/L each of L-lysine and L-arginine (“light” medium), D4-L-lysine and ^13C6-L-arginine (“medium” media), or ^13C6^15N2-L-lysine and ^13C6^15N4-L-arginine (Thermo Scientific). Heavy methyl labeling used DMEM without L-Methionine or L-Cysteine supplemented with D3^13C-L-Methionine (Sigma), L-Cysteine (Sigma) and 10% dialyzed FBS.
For UNC0638 treatments cells were treated for 24 hours with UNC0638 at 2.5 μM or DMSO vehicle control. One experiment treated cells in light media with UNC0638, the other treated cells in heavy media. Both experiments included cells in medium media treated with DMSO for negative control pull-down with 3×MBTD355N.
UNC0638 treatment experiments used a Q-Exactive mass spectrometer (ThermoFisher Scientific). A 25 cm HPLC column with 3 μm Reliasil (Orochem) was used to separate peptides over a 4 hour gradient from 0 to 75% acetonitrile. Ions were generated using a custom nanospray source flowing at 250 nL/minute. Mass spectrometry settings were 70,000 MS1 resolution, data dependent selection of up to 20 precursor ions per cycle, dynamic exclusion of 30 seconds and isolation window of 2 m/z. The nuclear fraction from the experiment using UNC0638 on cells in heavy media was additionally analyzed by 2D HPLC-MS/MS as described earlier.
Peptides were identified and quantified using MaxQuant version 1.2.2.5 (Cox and Mann, supra) with the following changes to default settings: mono- and di-methylation of lysine, and oxidation of methionine, and N-terminal acetylation as variable modifications, disabled “I=L”, up to three modifications per peptide, one missed cleavage, maximum charge of 5. Protein and peptide FDR were set to 1%, and proteins were filtered post-hoc for at least two unique peptides. Proteins were excluded from an experiment if they were not quantified in both labeling directions. Because FDR is unreliable for small numbers of peptides the modification site FDR was set to 10% and all methylated peptides were manually verified. […] Quantitative protein data was normalized to the mean value among proteins identified by analyzing 50 ng of digested loading control.
For UNC0638 experiments the treated vs. untreated ratio was determined by subtracting the value from 3×MBTD355N prior to dividing values from the light and heavy channels. Only proteins showing a two-fold signal to background ratio (3×MBT/3×MBTD355N) were evaluated as potential G9a/GLP substrates.

G9a and GLP = molecular target: T1, G9a and GLP (Homo sapiens, UniProt Q96KQ7+Q9H9B1); experiment: Triple SILAC pull-down after UNC0638 treatment of 293T cells, DMSO/UNC0638 ratio of protein captured by 3×MBT; assay type: cell-based; design: endogenous in cells; host or cells: HEK 293T; conditions: for Relative to UNC0638 UNC Heavy: UNC0638 in heavy SILAC media; for Relative to UNC0638 UNC Light: UNC0638 in light SILAC media; for Relative to UNC0638 Average: average of UNC Light and UNC Heavy experiments;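 on all read-outs here: mass spectrometry (Q-Exactive) SILAC quantitation, DMSO/UNC0638 ratio computed after subtracting 3×MBTD355N mutant pull-down background, only proteins with at least twofold 3×MBT over mutant signal considered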
T1 sequence (Q96KQ7 2-1210 limits assumed): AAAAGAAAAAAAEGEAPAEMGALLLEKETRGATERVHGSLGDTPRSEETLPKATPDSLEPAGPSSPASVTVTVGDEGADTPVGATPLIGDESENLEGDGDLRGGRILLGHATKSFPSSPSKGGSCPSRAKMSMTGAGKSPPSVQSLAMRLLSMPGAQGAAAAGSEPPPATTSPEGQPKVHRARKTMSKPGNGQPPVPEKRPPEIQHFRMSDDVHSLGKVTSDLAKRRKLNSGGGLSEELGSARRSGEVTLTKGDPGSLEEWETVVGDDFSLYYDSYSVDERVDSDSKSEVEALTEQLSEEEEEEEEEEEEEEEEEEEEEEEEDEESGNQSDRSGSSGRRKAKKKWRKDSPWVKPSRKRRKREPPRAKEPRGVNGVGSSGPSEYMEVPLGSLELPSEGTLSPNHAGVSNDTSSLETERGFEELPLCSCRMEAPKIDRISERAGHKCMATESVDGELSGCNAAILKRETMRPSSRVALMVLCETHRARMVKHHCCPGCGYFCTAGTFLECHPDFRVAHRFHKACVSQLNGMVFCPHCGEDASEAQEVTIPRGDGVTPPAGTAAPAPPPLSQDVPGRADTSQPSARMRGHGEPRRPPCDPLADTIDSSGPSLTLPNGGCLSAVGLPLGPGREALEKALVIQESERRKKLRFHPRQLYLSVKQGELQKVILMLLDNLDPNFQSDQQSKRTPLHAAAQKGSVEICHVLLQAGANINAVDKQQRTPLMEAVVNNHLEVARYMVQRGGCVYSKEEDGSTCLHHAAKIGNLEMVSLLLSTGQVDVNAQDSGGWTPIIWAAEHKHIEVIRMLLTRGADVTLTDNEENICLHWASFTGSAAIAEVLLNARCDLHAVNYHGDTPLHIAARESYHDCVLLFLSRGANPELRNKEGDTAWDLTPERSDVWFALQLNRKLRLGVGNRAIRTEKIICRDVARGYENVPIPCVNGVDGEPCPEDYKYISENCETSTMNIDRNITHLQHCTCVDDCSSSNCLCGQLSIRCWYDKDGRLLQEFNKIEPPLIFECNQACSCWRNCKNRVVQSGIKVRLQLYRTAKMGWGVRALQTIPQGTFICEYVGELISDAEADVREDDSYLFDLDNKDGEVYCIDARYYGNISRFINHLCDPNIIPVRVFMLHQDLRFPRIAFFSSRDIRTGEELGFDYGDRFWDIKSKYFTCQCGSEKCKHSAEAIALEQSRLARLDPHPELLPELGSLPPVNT
T1 sequence (Q9H9B1 2-1298 limits assumed): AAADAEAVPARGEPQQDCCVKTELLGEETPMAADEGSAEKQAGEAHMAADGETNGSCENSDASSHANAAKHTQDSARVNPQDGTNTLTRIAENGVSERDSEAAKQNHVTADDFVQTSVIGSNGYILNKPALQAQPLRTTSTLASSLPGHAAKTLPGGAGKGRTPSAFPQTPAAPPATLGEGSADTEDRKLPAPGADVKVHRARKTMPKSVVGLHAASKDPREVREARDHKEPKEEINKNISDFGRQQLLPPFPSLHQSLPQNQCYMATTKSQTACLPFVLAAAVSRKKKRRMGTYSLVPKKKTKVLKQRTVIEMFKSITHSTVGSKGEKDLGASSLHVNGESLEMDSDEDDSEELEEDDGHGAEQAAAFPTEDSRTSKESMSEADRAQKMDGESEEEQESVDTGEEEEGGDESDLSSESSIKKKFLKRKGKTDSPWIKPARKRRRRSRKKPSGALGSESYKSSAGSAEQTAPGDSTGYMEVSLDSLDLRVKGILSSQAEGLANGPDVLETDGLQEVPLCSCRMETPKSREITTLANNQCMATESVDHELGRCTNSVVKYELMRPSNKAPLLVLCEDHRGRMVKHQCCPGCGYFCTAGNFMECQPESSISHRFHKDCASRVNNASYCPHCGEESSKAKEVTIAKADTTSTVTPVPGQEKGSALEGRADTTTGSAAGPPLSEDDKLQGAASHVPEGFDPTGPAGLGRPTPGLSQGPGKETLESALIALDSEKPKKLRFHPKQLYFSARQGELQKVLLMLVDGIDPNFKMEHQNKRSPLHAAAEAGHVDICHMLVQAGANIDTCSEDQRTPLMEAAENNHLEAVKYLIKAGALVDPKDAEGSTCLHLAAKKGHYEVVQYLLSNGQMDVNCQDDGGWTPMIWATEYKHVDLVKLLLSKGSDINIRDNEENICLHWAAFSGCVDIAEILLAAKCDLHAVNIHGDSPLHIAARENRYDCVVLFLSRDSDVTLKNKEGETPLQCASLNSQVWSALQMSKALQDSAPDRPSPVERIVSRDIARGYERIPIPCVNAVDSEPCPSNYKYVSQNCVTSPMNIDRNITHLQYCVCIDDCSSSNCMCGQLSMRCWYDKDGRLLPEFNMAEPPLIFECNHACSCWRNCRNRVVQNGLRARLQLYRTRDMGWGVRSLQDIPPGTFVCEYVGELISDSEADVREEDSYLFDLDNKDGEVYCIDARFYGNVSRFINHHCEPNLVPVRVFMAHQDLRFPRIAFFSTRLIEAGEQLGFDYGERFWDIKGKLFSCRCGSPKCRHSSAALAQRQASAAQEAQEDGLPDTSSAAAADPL

[1] = SILAC ratio, pull-down 3xMBT vs 3xMBTD355N
[2] = SILAC ratio DMSO/UNC0638 of protein pulled down with 3xMBT
[3] = SILAC ratio 3xMBT vs 3xMBTD355N pull-down, 293T cells, all values in log base 2
[4] = SILAC ratio DMSO relative to UNC0638, pull-down with 3xMBT, all values in log base 2

| Molecule | 3xMBT/D355N UNC Heavy (3×MBT domain of L3MBTL1; [1]) [log base 2] | 3xMBT/D355N UNC Light (3×MBT domain of L3MBTL1; [1]) [log base 2] | Relative to UNC0638 UNC Heavy (G9a and GLP; [2]) [log base 2] | Relative to UNC0638 UNC Light (G9a and GLP; [2]) [log base 2] | Relative to UNC0638 Average (G9a and GLP) [log base 2] | 3xMBT/D355N UNC Heavy (3×MBT domain of L3MBTL1; [3]) [log base 2] | 3xMBT/D355N UNC Light (3×MBT domain of L3MBTL1; [3]) [log base 2] | Relative to UNC0638 UNC Heavy (G9a and GLP; [4]) [log base 2] | Relative to UNC0638 UNC Light (G9a and GLP; [4]) [log base 2] | Relative to UNC0638 Average (G9a and GLP; all values in log base 2) [log base 2] |
| --- | --- | --- | --- | --- | --- | --- | --- | --- | --- | --- |
| B1 | 2.92 | 2.32 | 0.24 | −0.02 | 0.11 | – | – | – | – | – |
| B2 | – | – | – | – | – | 3.18 | 2.44 | 0.01 | 0.19 | 0.10 |
| B3 | – | – | – | – | – | 1.65 | 1.98 | 0.17 | 0.04 | 0.10 |
| B4 | – | – | – | – | – | 2.38 | 2.01 | 0.10 | 0.10 | 0.10 |
| B5 | – | – | – | – | – | 2.51 | 1.19 | 0.28 | −0.08 | 0.10 |
